Experimental data reported in patent US20140072613A1 (published 2014).

T1: ULK2(h) (human, UniProt Q8IYT8 1-631, limits assumed)
T1 sequence (looked up): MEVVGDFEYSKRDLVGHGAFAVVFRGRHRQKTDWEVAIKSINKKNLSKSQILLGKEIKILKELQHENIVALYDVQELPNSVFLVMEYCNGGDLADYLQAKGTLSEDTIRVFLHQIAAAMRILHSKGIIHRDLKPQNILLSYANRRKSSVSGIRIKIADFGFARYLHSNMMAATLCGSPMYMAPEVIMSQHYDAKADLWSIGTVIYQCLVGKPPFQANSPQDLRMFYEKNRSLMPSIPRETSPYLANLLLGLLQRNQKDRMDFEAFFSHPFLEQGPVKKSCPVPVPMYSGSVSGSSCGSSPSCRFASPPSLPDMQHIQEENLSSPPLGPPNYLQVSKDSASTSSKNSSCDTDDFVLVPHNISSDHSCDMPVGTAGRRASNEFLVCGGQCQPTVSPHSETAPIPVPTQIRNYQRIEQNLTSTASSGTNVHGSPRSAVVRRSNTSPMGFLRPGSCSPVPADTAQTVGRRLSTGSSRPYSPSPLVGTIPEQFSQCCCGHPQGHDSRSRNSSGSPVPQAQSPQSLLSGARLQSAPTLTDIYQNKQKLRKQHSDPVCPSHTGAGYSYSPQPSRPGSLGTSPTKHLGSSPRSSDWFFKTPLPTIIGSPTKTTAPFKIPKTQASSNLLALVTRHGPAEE

T2: Fms(Y969C)(h) (human, UniProt P07333 538-972, limits assumed)
T2 sequence (looked up): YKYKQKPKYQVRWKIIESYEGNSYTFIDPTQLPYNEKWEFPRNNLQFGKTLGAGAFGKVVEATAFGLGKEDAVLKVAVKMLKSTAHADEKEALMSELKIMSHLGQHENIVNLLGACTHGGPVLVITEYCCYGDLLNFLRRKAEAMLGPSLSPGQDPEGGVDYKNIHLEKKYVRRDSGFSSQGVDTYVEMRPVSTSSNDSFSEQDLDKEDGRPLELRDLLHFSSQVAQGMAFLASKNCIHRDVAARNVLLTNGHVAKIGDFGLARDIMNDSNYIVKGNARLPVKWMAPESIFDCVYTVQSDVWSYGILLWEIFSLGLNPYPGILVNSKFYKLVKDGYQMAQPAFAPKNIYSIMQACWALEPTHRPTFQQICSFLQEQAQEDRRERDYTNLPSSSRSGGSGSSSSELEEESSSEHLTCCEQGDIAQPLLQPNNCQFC

T3: PrKX(h) (human, UniProt P51817 1-358)
T3 sequence (looked up): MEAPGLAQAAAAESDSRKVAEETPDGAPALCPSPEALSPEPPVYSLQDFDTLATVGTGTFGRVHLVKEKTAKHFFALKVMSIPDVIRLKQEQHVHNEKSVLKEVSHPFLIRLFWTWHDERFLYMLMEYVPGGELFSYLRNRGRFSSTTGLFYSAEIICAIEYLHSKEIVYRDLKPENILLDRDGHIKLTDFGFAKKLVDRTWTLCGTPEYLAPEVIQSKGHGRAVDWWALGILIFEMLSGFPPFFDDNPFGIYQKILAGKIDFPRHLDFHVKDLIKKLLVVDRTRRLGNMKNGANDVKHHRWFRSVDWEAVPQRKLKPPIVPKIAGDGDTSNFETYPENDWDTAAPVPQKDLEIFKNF

T4: GCK(h) (human, UniProt Q12851 1-820, limits assumed)
T4 sequence (looked up): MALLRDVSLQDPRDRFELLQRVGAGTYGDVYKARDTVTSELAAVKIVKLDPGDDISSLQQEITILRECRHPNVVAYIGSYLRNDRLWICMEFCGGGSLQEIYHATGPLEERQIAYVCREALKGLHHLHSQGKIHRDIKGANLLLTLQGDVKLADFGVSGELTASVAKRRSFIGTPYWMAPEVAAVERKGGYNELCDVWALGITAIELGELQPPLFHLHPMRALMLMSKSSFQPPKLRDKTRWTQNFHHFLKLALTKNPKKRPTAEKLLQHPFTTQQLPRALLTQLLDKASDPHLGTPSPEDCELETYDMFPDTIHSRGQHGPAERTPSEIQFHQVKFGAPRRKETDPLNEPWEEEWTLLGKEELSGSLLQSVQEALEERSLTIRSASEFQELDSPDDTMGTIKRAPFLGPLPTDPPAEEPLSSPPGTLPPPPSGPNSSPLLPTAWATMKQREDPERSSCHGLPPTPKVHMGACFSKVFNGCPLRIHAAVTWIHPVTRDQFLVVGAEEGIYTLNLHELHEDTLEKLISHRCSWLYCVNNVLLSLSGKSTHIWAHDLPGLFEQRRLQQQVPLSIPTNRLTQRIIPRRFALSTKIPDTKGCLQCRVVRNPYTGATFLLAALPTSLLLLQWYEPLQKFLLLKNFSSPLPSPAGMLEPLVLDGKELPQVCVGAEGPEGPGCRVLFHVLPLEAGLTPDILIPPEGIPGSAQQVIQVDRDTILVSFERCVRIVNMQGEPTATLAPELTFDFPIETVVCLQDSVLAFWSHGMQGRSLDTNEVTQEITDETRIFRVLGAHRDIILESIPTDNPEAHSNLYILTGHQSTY


Tests used:
Assay in all cases: cell-based or functional assay
CaMKIIγ(h) = CaMKIIγ(h) (human, UniProt Q13555 1-558, limits assumed)
Sequence of CaMKIIγ(h) (Q13555 whole entry): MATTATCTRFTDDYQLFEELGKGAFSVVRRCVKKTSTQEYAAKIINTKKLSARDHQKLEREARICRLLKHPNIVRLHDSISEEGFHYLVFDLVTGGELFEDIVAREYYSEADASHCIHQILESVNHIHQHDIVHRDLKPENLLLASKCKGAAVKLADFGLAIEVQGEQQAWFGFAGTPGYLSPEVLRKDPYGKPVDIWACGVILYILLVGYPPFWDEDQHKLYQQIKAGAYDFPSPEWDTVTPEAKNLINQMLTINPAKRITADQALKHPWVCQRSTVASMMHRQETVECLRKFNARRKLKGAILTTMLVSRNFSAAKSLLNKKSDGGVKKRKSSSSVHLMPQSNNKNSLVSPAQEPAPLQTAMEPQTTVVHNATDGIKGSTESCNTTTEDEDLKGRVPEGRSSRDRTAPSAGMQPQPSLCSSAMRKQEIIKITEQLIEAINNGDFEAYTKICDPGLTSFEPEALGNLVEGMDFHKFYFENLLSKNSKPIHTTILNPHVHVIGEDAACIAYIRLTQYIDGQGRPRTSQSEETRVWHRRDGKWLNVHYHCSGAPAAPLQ

ULK2(h) = target: T1, ULK2(h)
PKGδ(h) = PKGδ(h) (human)
mTOR/FKBP12(h) = mTOR/FKBP12(h) (human, UniProt P42345 1362-2549; P62942 1-108)
Sequence of mTOR/FKBP12(h) (P42345 1362-2549 limits assumed, chain 1 of 2): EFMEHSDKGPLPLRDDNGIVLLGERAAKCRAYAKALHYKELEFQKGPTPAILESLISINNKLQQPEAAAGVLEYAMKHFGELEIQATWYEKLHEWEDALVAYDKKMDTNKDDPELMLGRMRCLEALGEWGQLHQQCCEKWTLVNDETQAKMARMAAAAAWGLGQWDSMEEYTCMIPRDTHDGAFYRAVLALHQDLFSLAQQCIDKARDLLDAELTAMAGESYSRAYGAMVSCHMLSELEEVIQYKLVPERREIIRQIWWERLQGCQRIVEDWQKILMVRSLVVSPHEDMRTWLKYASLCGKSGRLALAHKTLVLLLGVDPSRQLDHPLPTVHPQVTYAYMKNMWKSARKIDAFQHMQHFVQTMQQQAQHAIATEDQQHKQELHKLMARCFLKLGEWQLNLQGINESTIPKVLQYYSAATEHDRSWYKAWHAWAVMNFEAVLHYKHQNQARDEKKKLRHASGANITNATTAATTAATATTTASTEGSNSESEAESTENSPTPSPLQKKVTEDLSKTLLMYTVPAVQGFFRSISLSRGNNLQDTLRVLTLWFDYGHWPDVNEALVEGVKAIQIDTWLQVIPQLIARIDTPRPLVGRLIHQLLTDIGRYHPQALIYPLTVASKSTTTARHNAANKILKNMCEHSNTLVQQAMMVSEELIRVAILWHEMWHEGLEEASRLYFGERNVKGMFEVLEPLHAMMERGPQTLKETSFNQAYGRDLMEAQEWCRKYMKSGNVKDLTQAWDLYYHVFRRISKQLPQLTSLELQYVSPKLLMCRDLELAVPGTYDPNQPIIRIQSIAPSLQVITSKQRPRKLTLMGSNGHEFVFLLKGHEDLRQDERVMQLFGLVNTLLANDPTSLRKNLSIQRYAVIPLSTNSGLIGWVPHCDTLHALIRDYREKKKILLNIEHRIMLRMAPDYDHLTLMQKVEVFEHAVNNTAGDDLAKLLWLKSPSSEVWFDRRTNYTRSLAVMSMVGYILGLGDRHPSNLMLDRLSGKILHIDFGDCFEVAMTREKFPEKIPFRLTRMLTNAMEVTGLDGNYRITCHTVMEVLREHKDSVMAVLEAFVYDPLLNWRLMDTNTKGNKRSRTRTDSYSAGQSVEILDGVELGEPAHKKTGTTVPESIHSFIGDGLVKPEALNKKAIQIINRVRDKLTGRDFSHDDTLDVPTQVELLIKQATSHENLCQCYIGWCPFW
Sequence of mTOR/FKBP12(h) (P62942 whole entry, chain 2 of 2): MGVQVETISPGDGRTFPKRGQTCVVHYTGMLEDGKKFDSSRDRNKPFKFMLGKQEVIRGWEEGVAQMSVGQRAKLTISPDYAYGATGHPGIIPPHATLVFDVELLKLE

Fms(Y969C)(h) = target: T2, Fms(Y969C)(h)
PrKX(h) = target: T3, PrKX(h)
ROCK-I(h) = ROCK-I(h) (human, UniProt Q13464 17-535, limits assumed)
Sequence of ROCK-I(h) (Q13464 17-535 limits assumed): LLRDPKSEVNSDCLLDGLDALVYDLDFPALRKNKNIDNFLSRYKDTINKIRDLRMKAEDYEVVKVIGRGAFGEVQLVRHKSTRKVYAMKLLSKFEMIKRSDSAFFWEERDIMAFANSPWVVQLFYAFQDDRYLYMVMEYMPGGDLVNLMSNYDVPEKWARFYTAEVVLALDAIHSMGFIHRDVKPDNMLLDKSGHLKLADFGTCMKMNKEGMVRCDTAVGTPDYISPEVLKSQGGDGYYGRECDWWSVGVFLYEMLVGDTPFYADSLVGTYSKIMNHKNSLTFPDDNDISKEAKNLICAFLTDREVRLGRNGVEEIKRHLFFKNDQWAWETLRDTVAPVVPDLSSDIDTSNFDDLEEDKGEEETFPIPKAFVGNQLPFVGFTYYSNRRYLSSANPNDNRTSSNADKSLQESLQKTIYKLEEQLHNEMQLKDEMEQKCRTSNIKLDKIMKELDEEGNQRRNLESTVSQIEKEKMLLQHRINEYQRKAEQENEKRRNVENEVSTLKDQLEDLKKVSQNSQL

GCK(h) = target: T4, GCK(h)

Binder | % activity, 100 µM (CaMKIIγ(h)) [%] | % activity, 100 µM (ULK2(h)) [%] | % activity, 100 µM (PKGδ(h)) [%] | % activity, 100 µM (mTOR/FKBP12(h)) [%] | % activity, 100 µM (Fms(Y969C)(h)) [%] | % activity, 100 µM (PrKX(h)) [%] | % activity, 100 µM (ROCK-I(h)) [%] | % activity, 100 µM (GCK(h)) [%]
FAKLAARLYRKALARQLGVAA [MMI-0300] | 5 | 122 | 101 | 145 | 72 | 61 | 79 | 70
KAFAKLAARLYRKALARQLGVAA [MMI-0400] | 3 | 131 | 90 | 125 | 91 | 76 | 73 | 66
